Measured values from US12286661B2, “Methods for making high intensity sweeteners” (Firmenich Incorporated, priority 2018, dated 2025).

system: cucurbitadienol; assay: 11-OH cucurbitadienol production from cucurbitadienol by CYP450s expressed in S. cerevisiae, LCMS; type: cell-based; settings: S. cerevisiae strain producing cucurbitadienol and expressing SgCPR; LCMS peak area of product vs. internal reference; hits over vector only control
Excerpt: (§1) DNA was obtained through gene synthesis either through Genescript, IDT, or Genewiz. For some of the cucurbitadienol synthases, cDNA or genomic DNA was obtained through 10-60 day old seedlings followed by PCR amplification using specific and degenerate primers. DNA was cloned through standard molecular biology techniques or through yeast gap repair cloning (Joska et al., 2014) into one of the following overexpression vectors: pESC-Ura, pESC-His, or pESC-LEU. Gene expression was regulated by one of the following promoters; Gall, Gal10, Tef1, or GDS. Yeast transformation was performed using Zymo Yeast Transformation Kit II. Yeast strains were grown in standard media (YPD or SC) containing the appropriate selection with 2% glucose or 2% galactose for induction of heterologous genes. Yeast strains were grown in shake flask or 96 well plates at 30° ° C., 140-250 rpm. When indicated, lanosterol synthase inhibitor, Ro 48-8071 (Cayman Chemicals) was added (50 ug/ml). Yeast samples producing mogrol precursors, mogrol and mogrosides were processed through one of the following: • Cucurbitadienol and 11-OH Cucurbitadienol: Samples cell pellets were lysed (Yeast Buster) followed by ethyl acetate extraction, drying, and resuspension in methanol. • ·Mogrol and Mogrosides: Samples cell pellets were lysed in 50% ETOH, incubated at 80° C. for 30 min, filtered, dried and resuspended in MeOH for LCMS screening.
For analyzing 11-OH cucurbitadienol, the LCMS method included the use of C8 2.1×100 mm column, gradient 60 to 90% B for 6 minutes at flow rate of 0.55 ml/min. For the enzyme screening, the LCMS method used was a Waters Acquity UPLC Protein BEH C4, 2.1×100 mm, 1.7 μm column and a gradient of 40% to 80% over 5 minutes, 95% B from 5.1 to 5.6 minutes with a flow rate of 0.55 ml/min, and ESI source positive mode single ion monitoring of 425.4.
Additional CYP450s were expressed in S. cerevisiae strain producing cucurbitadienol and expressing SgCPR. DNA and protein sequences for the CYP450 enzymes are shown in SEQ IDs 871-890 and 1024-1049 (see Table 1).

Molecule | Peak Area 11-OH CCB
SEQ ID NO. 1026/1027: CYP450 enzyme (DNA/protein SEQ ID NO) producing 11-OH cucurbitadienol (protein, listed as Cucumis sativus) MWTILLGLATLAIAYYIHWVNKWKDSKFNGVLPPGTMGLPLIGETIQLSRPSDSLDVHPFIQRKVKRYGPIFKTCLAGRPVVVSTDAEFNHYIMLQEGRAVEMWYLDTLSKFFGLDTEWLKALGLIHKYIRSITLNHFGAESLRERFLPRIEESARETLHYWSTQTSVEVKESAAAMVFRTSIVKMFSEDSSKLLTEGLTKKFTGLLGGFLTLPLNLPGTTYHKCIKDMKQIQKKLKDILEERLAKGVKIDEDFLGQAIKDKESQQFISEEFIIQLLFSISFASFESISTTLTLILNFLADHPDVVKELEAEHEAIRKARADPDGPITWEEYKSMNFTLNVICETLRLGSVTPALLRKTTKEIQIKGYTIPEGWTVMLVTASRHRDPEVYKDPDTFNPWRWKELDSITIQKNFMPFGGGLRHCAGAEYSKVYLCTFLHILFTKYRWRKLKGGKIARAHILRFEDGLYVNFTPKE | 0.9893
SEQ ID NO. 1028/1029: CYP450 enzyme (DNA/protein SEQ ID NO) producing 11-OH cucurbitadienol (protein, Cucumis melo) MWTILLGLATLAIAYYIHWVNKWKDSKFNGVLPPGTMGLPLIGETIQLSRPSDSLDVHPFIQSKVKRYGPIFKTCLAGRPVVVSTDAEFNHYIMLQEGRAVEMWYLDTLSKFFGLDTEWLKALGLIHKYIRSITLNHFGAESLRERFLPRIEESARETLHYWSTQPSVEVKESAAAMVFRTSIVKMFSEDSSKLLTAGLTKKFTGLLGGFLTLPLNVPGTTYHKCIKDMKEIQKKLKDILEERLAKGVSIDEDFLGQAIKDKESQQFISEEFIIQLLFSISFASFESISTTLTLILNFLADHPDVAKELEAEHEAIRKARADPDGPITWEEYKSMNFTLNVICETLRLGSVTPALLRKTTKEIQIKGYTIPEGWTVMLVTASRHRDPEVYKDPDTFNPWRWKELDSITIQRNFMPFGGGLRHCAGAEYSKVYLCTFLHILFTKYRWRKLKGGKIARAHILRFEDGLYVNFTPKE | 0.9703
SEQ ID NO. 1030/1031: CYP450 enzyme (DNA/protein SEQ ID NO) producing 11-OH cucurbitadienol (protein, Quercus suber) MWTIGLCIVAVLVIYLSYRLNKWSNPKCNGILPPGSMGLPLIGETLQLIVPSYSLDLHPFIKKKAQKYGPIFRTSVAGSPIVVSIDPEFNHYIVKQEGRLVELWYLDSFSKLFSTEGENKTNAIGVVHKYIRSIALNHFGVDPLKEKLLPQIEEFVDKALQTWSSHPLVEMKHAASVMIFDFSAKLFISYDAENSPMKMSEKFTNILGGFMSFPLNIPGTTYHKCLKDRNEALSMLRKIFKERINSPKRHFEDLLDQAINDTDKEKFLPEDFIINVVFGLLFASFESISAALSLILNLLAEHPAVLQELTDEHKAILKNRESPNSILTWDEYKSMTFTHQVINEALRLGGVAPGLLRKALKDIEFKGYTIPAGWTIMLVNSAIQLNPNTYKDPLAFNPWRWKDLDSLFVSKNFMPFGGGIRQCVGAEYSKTFLATFLHVLVTKYRWTKVKGGTIVRNPILEFTDGLHIKFSAISN | 0.9207
SEQ ID NO. 889/890: CYP450 enzyme (DNA/protein SEQ ID NO) producing 11-OH cucurbitadienol (protein, Pathway step 3 sequence T CYP88D6 (codon optimized)) MEVHWVCMCAATLLVCYIFGSKFVRNLNGWYYDVKLRRKEHPLPPGDMGWPLMGNLLSFIKDFSSGHPDSFINNLVLKYGRSGIYKTHLFGNPSIIVCEPQMCRRVLTDDVNFKLGYPKSIKELARCRPMIDVSNAEHRLFRRLITSPIVGHKALAMYLERLEEIVINSLEELSSMKHPVELLKEMKKVSFKAIVHVFMGSSNQDIIKKIGSSFTDLYNGMFSIPINVPGFTFHKALEARKKLAKIVQPVVDERRLMIENGQQEGDQRKDLIDILLEVKDENGRKLEDEDISDLLIGLLFAGHESTATSLMWSITYLTQHPHILKKAKEEQEEIMRTRLSSQKQLSFKEIKQMVYLSQVIDETLRCANIAFATFREATADVNINGYIIPKGWRVLIWARAIHMDSEYYPNPEEFNPSRWDDYNAKAGTFLPFGAGSRLCPGADLAKLEISIFLHYFLLNYRLERVNPECHVTSLPVSKPTDNCLAKVMKVSCA | 0.649

system: mogrol; assay: Mogroside IA and/or IE production from mogrol by glycosyltransferases expressed in S. cerevisiae, LCMS; type: cell-based; settings: 10 μM mogrol, 2-4 days at 30° C.; identified by LCMS
Excerpt: as §1
For analyzing Mogroside IIIE & Compound 1, the LCMS method included the use of Fluoro-phenyl 2.1×100 mm column, gradient 15 to 30% B for 6 minutes, at flow rate of 0.55 ml/min. For analyzing yeast production of mogroside I during enzyme screening, the LCMS method used a Phenomenex Kinetex Polar C18, 4.6×100 mm, 2.6 μm column, and a gradient of 25% to 55% B over 3 minutes, and 100% B at 3.5 minutes with a flow rate of 1.5 ml/min. Detection by ESI source negative mode single ion monitoring of 683.4 for mogroside I and 799.4 for mogroside II.
Various glycosyltransferase proteins were expressed in S. cerevisiae grown in the presence of 10 μM mogrol for 2-4 days at 30° C., 140-250 rpm in either shake flask or 96 well plates. Glycosyltransferases leading to production of Mogroside IA (glycosylation of C24-OH position) and/or Mogroside IE (glycosylation of C3-OH position) are provided in Table 6. DNA and protein sequences for the enzymes are provided in SEQ IDs 1050-1071 (see Table 1).

Molecule | Mogroside IA | Mogroside IE
SEQ ID NO. 1054/1055: glycosyltransferase (DNA/protein SEQ ID NO) producing mogroside I from mogrol (protein, listed as Barbarea vulgaris) MVSEITHKSYPLHFVLFPFMAQGHMIPMVDIARLLAQRGVKITIVTTPHNAARFENVLSRAIESGLPISIVQVKLPSQEAGLPEGNETFDSLVSMELLVPFFKAVNMLEEPVQKLFEEMSPQPSCIISDFCLPYTSKIAKKFNIPKILFHGMCCFCLLCMHVLRKNREILENLKSDKEHFVVPYFPDRVEFTRPQVPMATYVPGEWHEIKEDIVEADKTSYGVIVNTYQELEPAYANDYKEARSGKAWTIGPVSLCNKVGADKAERGNKADIDQDECLKWLDSKEEGSVLYVCLGSICSLPLSQLKELGLGLEESQRPFIWVVRGWEKNKELLEWFSESGFEERVKDRGLLIKGWSPQMLILAHHSVGGFLTHCGWNSTLEGITSGIPLLTWPLFGDQFCNQKLVVQVLKVGVSAGVEEVTNWGEEEKIGVLVDKEGVKKAVEELMGESDDAKERRKRVKELGQLAQKAVEEGGSSHSNITSLLEDIMQLAQSNN | 659331 | 17857
SEQ ID NO. 1056/1057: glycosyltransferase (DNA/protein SEQ ID NO) producing mogroside I from mogrol (protein, listed as Barbarea vulgaris) MVSEITHKSYPLHFVLFPFMAQGHMIPMVDIARLLAQRGVKITIVTTPHNAARFENVLSRAIESGLPISIVQVKLPSQEAGLPEGNETFDSLVSTKLLVPFFKAVNMLEEPVQKLFEEMSPQPSCIISDFCLPYTSKIAKKFNIPKILFHGMCCFCLLCMHVLRKNREILENLKSDKEHFVVPYFPDRVEFTRPQVPLATYVPGEWHEIKEDMVEADKTSYGVIVNTYQELEPAYANGYKEARSGKAWTIGPVSLCNKVGADKAERGNKADIDQDECLKWLDSKEEGSVLYVCLGSICSLPLSQLKELGLGLEESQRPFIWVVRGWEKNKELLEWFSESGFEERVKDRGLLIKGWSPQMLILAHHSVGGFLTHCGWNSTLEGITSGVPLLTWPLFGDQFCNQKLVVQVLKVGVSAGVEEVTNWGEEEKIGVLVDKEGVKKAVEELMGESDDAKEIRKRVKELGQLAHKAVEEGGSSHSNITSLLEDIMQLAQPNN | 200270 | 4690
SEQ ID NO. 1052/1053: glycosyltransferase (DNA/protein SEQ ID NO) producing mogroside I from mogrol (protein, listed as Siraitia grosvenorii) MEKGDTHILVFPFPSQGHINPLLQLSKRLIAKGIKVSLVTTLHVSNHLQLQGAYSNSVKIEVISDGSEDRLETDTMRQTLDRFRQKMTKNLEDFLQKAMVSSNPPKFILYDSTMPWVLEVAKEFGLDRAPFYTQSCALNSINYHVLHGQLKLPPETPTISLPSMPLLRPSDLPAYDFDPASTDTIIDLLTSQYSNIQDANLLFCNTFDKLEGEIIQWMETLGRPVKTVGPTVPSAYLDKRVENDKHYGLSLFKPNEDVCLKWLDSKPSGSVLYVSYGSLVEMGEEQLKELALGIKETGKFFLWVVRDTEAEKLPPNFVESVAEKGLVVSWCSQLEVLAHPSVGCFFTHCGWNSTLEALCLGVPVVAFPQWADQVTNAKFLEDVWKVGKRVKRNEQRLASKEEVRSCIWEVMEGERASEFKSNSMEWKKWAKEAVDEGGSSDKNIEEFVAMLKQT | 1605 | 22917
